Results from publication doi:10.1101/2025.08.18.670902, “Pyrimethamine inhibits mutant NRF2 as a molecular glue” (bioRxiv, 2025).

Molecular target: T1, Kelch fragment (Ala321-Glu611 of human KEAP1 protein) (human, UniProt Q14145 321-611, biotinylated (site not stated))
T1 construct: KEAP1, human, Kelch fragment Ala321-Glu611, printed MW 34,038.03 Da; Captured on a streptavidin chip through biotin; also called Kelch fragment of KEAP1; biotinylated Kelch; source: expressed in vitro, purified, biotinylated, validated by LC-MS
T1 sequence (Q14145 321-611): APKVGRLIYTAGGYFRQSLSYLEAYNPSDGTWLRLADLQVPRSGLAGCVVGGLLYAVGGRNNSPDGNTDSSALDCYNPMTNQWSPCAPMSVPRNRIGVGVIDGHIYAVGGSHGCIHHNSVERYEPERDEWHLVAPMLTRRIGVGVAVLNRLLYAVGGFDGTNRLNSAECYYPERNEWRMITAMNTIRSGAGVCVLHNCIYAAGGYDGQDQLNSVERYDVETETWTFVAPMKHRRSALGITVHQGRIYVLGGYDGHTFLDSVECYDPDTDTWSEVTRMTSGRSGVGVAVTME
Assay: SPR; Biacore S200, biotinylated Kelch immobilised on a streptavidin chip; peptide analyte in 2-fold dilutions 200 μM to 0.39 μM, 30 μl/min, 90 s association, 180 s dissociation, analysis at 15 °C; without PYR
Details: both partners purified

binding result: binds
B1: DLG^WT peptide (NRF2 residues 17-40) (peptide)
peptide: MDLIDILWRQDIDLGVSREVFDFS
notes: NRF2 (NFE2L2), human, residues 17-40 with the DLG motif; also called 24-mer peptide; source: synthetic peptide
